Results published in doi:10.1101/2021.08.31.458345.

Tests used:
[1] = molecular target: gp41 subunit of ADA.CM.v4 Env (CTD truncated by 102 amino acids) (HIV-1 (subtype B isolate ADA)); assay: cryo-EM structure
[2] = molecular target: immature Gag polyprotein (pr55 Gag precursor) (HIV-1); assay: cryo-EM structure

Substance	stoichiometry N [1]	stoichiometry N [2]
gp41 subunit of ADA.CM.v4 Env (CTD truncated by 102 amino acids) (domain or fragment)	3	
immature Gag polyprotein (pr55 Gag precursor) (natural protein)		6
